Measured values reported in patent US20130202591A1 (ANAPTYSBIO, published 2013).
Residue numbers refer to the chain shown, from its start.

B1: APE755-1574/773 (antibody, V domains shown)
VH: EVQLVESGGGLVQPGGSLRLSCAASGFTFSNHWMNWVRQTPGKGLEWVAAINEDGSEKYYVGSVKVRFTISRDNAKNSLYLQMNSLRVEDTAVYYCARDYYDILTRDYYDILTDYYIHYWYFDLWGRGTLVTVSS
VL: not shown
notes: Human IgG (detected with anti-human IgG)
B2: 546/773 (antibody, V domains shown)
VH: EVQLVESGGGLVQPGGSLRLSCAASGFTFSSYWMSWVRQAPGKGLEWVANIKQDGSEKYYVDSVKGRFTISRDNAKNSLYLQMNSLRAEDTAVYYCARDYYDILTDYYIHYWYFDLWGRGTLVTVSS
VL: not shown
notes: IgG captured by anti-human Fc; also called Well 9
B3: antibody with heavy chain SEQ ID NO: 2 and light chain SEQ ID NO: 29 (antibody, V domains shown)
VH: B2 VH with Y32H, Q53E
VL: not shown
notes: IgG captured by anti-human Fc; also called Well 3
B4: antibody with heavy chain SEQ ID NO: 1 and light chain SEQ ID NO: 29 (antibody, V domains shown)
VH: B2 VH
VL: not shown
notes: IgG captured by anti-human Fc; also called Well 2
B5: 843/773 (antibody, V domains shown)
VH: B2 VH with S31N, S35N, N50S, K52N, D62G, A88V, A97V
VL: not shown
notes: IgG captured by anti-human Fc; also called Well 14
B6: antibody with heavy chain SEQ ID NO: 6 and light chain SEQ ID NO: 27 (antibody, V domains shown)
VH: B2 VH with N50S
VL: not shown
notes: IgG captured by anti-human Fc; also called Well 20
B7: antibody with heavy chain SEQ ID NO: 30 and light chain SEQ ID NO: 24 (antibody, V domains shown)
VH: B2 VH with S31N, S35N, N50A, K52N, D62G, A88V, A97V
VL: not shown
notes: IgG captured by anti-human Fc; also called Well 8
B8: antibody with heavy chain SEQ ID NO: 4 and light chain SEQ ID NO: 29 (antibody, V domains shown)
VH: B2 VH with S31N, Y32H, S35N, N50A, K52N, Q53E, D62G, A88V
VL: not shown
notes: IgG captured by anti-human Fc; also called Well 4
B9: antibody with heavy chain SEQ ID NO: 9 and light chain SEQ ID NO: 29 (antibody, V domains shown)
VH: B2 VH with S31N, S35N, N50S, K52N, D62G, A88V, A97V
VL: not shown
notes: IgG captured by anti-human Fc; also called Well 7
B10: antibody with heavy chain SEQ ID NO: 30 and light chain SEQ ID NO: 25 (antibody, V domains shown)
VH: B2 VH with S31N, S35N, N50A, K52N, D62G, A88V, A97V
VL: not shown
notes: IgG captured by anti-human Fc; also called Well 15
B11: APE265-817/773 (antibody, V domains shown)
VH: B2 VH with S31N, Y32H, S35N, N50A, K52N, Q53E, D62G, A88V
VL: not shown
notes: also called Well 11
B12: APE321-844/773 (antibody, V domains shown)
VH: B2 VH with N50S
VL: not shown
notes: Human IgG; also called Well 12
B13: APE508-1266/773 (antibody, V domains shown)
VH: EVQLVESGGGLVQPGGSLRLSCAASGFTFSNHWMNWVRQTPGKGLEWVAAINEDGSEKYYVGSVKVRFTISRDNAKNSLYLQMNSLRVEDTAVYYCVRDYYDILTDYYIHYWYFDLWGRGTLVTVSS
VL: not shown
notes: as for B1
B14: APE422-1141/773 (antibody, V domains shown)
VH: B13 VH with V97A
VL: not shown
notes: as for B1
B15: 887/841 (antibody, V domains shown)
VH: B2 VH with S31D, S35D, N50S, K52R, Q53E
VL: DIQMTQSPSSLSASVGDRVTITCRASQSISSYLNWYQQKPGKAPKLLIYAASSLQSGVPSRFSGSGSGTDFTLTISSLQPEDFAVYYCQQYGSSPLTFGGGTKVEIKR
notes: Captured by anti-human Fc
B16: 878/842 (antibody, V domains shown)
VH: B2 VH with S31D, S35D, K52R, Q53E
VL: not shown
notes: Captured by anti-human Fc
B17: APE490-1263/773 (antibody, V domains shown)
VH: B13 VH with N31D, H32F, N35D, A50S, N52K, V97A
VL: not shown
notes: as for B1
B18: APE318-878/773 (antibody, V domains shown)
VH: B2 VH with S31D, S35D, K52R, Q53E
VL: not shown
notes: as for B1
B19: APE319-887/773 (antibody, V domains shown)
VH: B2 VH with S31D, S35D, N50S, K52R, Q53E
VL: not shown
notes: as for B1
B20: APE744-1266/1540 (antibody, V domains shown)
VH: B13 VH
VL: not shown
notes: as for B1
B21: APE480-1261/773 (antibody, V domains shown)
VH: B2 VH with S31D, Y32F, S35D, A40T, N50S, Q53E, G66V
VL: not shown
notes: as for B1
B22: APE499-1332/773 (antibody, V domains shown)
VH: B13 VH with T69I, V97A
VL: not shown
notes: as for B1
B23: APE498-1330/773 (antibody, V domains shown)
VH: B13 VH with V97T
VL: not shown
notes: as for B1
B24: APE470-1150/773 (antibody, V domains shown)
VH: B2 VH with S31D, Y32F, S35D, Q53E
VL: not shown
notes: as for B1
B25: APE860-1723/773 (antibody, V domains shown)
VH: B13 VH with S30N
VL: not shown
notes: as for B1
B26: APE545-1346/773 (antibody, V domains shown)
VH: B13 VH with N31S, N35S, A50S, N52K, T69I, V97A
VL: not shown
notes: as for B1
B27: APE253-771/773 (antibody, V domains shown)
VH: B2 VH with Y32H, Q53E
VL: not shown
notes: Human IgG; also called Well 10
B28: APE467-1138/773 (antibody, V domains shown)
VH: B2 VH with Y32H, A40T, N50S, Q53E, G66V
VL: not shown
notes: as for B1
B29: APE320-847/773 (antibody, V domains shown)
VH: B2 VH with Y32H, N50S, Q53E
VL: not shown
notes: as for B1
B30: APE857-1622/773 (antibody, V domains shown)
VH: B1 VH with A97V
VL: not shown
notes: as for B1

What follows are binders tested against T1, human Myc-IL-17a (APE280) (human, UniProt Q16552 24-155, limits assumed) (assay: competition ELISA, plate-coated myc-IL-17a, biotinylated IL-17RA as competitor, IC50 comparison).
T1 construct: not shown: Myc tag

fold potency in blocking IL-17/IL-17RA interaction against the first reference anti-IL-17a antibody [fold] | Binder
40 | B1

What follows are binders tested against T2, human IL-17 (human, UniProt Q16552 24-155) (assay: SPR (BIACORE A100), IgG from transfection supernatant captured by anti-human Fc on CM5 chip, human IL-17 flowed over; 1:1 model with mass transport).
T2 construct: also called hIL-17; IL-17A

Kd [nM] | Binder
> 10 | B2
> 10 | B3
> 10 | B4
< 1 | B5
> 10 | B6
< 1 | B7
< 1 | B8
> 10 | B9
< 1 | B10
< 1 | B11
< 1 | B12

What follows are binders tested against T1, human Myc-IL-17a (APE280) (assay: competition ELISA: plate coated with myc-IL-17a (APE280), antibody titrated against biotinylated IL-17RA (sheet: 2.1 nM, overnight incubation), bound IL-17RA detected with avidin-HRP, OD450 as % of no antibody).

IC50 [nM] | Binder
1.6 | B13
0.34 | B1

What follows are binders tested against T3, IL-17 antigen (APE349) linked to wasabi fluorescent protein (WFP) (labeled with Eu3+-TBP-NHS Cryptate) (assay: HTRF competition against the labelled second reference antibody).
T3 construct: also called labeled antigen

binding result | Binder
binds | B13

What follows are binders tested against T2, human IL-17 (assay: Average KINEXA values).

koff [s⁻¹] | kon [M⁻¹ s⁻¹] | Binder
1.8e-05 | 418000 | B13
2.4e-05 | 360000 | B14
5.9e-06 | 1.2e+06 | B1

Each binder was assayed against T1, human Myc-IL-17a (APE280) (assay: cell-based or functional assay).

IL-8 release from human IL-17-stimulated cell lines, potency against the first reference anti-IL17a antibody [fold] | Binder
2 | B1

These binders were tested against T2, human IL-17 (assay: cell-based or functional assay).

IL-6 and IL-8 release from IL-17-stimulated primary human RA synovial fibroblasts, potency against the reference anti-IL-17a antibodies [fold] | Binder
5 | B1

Each binder was assayed against T2, human IL-17 (assay: SPR (BIACORE), antibody captured by anti-human Fc, antigen in flow; grade: ++ strong binding, + binding, +/- close to background;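 also: antigen injected at two-fold dilutions from 50 nM over captured antibody at 30 µL/min, dissociation followed for 10 min, kinetics fitted with a 1:1 mass-transport model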).

binding result | Binder
binds | B15
binds | B16

Each binder was assayed against T2, human IL-17 (assay: KINEXA 3000, solution equilibrium, free antibody captured on human IL-17a beads).

Kd [nM] | Binder
0.948 | B17
14.2 | B18
6.1 | B19
0.875 | B20
0.043 | B13
1.2 | B21
0.092 | B22
0.126 | B23
6.9 | B24
0.049 | B25
0.27 | B26
~60 | B27
0.374 | B28
2.5 | B29
0.322 | B11
0.067 | B14
9.4 | B12
0.0049 | B1
0.0048 | B30
